The values that follow come from patent US8258099B2, “Pin1-modulating compounds and methods of use thereof” (Max-Planck-Gesellschaft zur Foerderung der Wissenschaften …, priority 2004, dated 2012).

For orientation: pKd means the negative decadic logarithm of the Kd, by convention in mol/L.

Assay [1] has as its target T1, GST-hPin1, GST-hPin1 PPIase and GST-hPin1 WW domain (Homo sapiens, UniProt Q13526).
T1 construct: made in house
The assay is described as follows: Far western blot related analysis, hPin1 and its single domains. It is filed as binding. To be noted: 1 μM peptide 15, 50 μM nonphosphorylated derivative. On the procedure:
FIGS. 2A-B depict western blot experiments analyzing the binding of peptide 15 to Pin1. FIG. 2A depicts the binding preferences of the PPIase and WW domain of hPin1 regarding peptide 15. In far western blot related experiments, increasing amounts (from left to right: 1, 5, 10, 52.5, 105 pmol) of GST, GST-hPin1 or its single GST-hPin1 PPIase and GST-hPin1 WW domain were spotted onto nitrocellulose membranes followed by a blocking procedure. The membranes were then incubated with a 1 μM solution of peptide 15 or 50 μM solution of its nonphosphorylated derivative (control). Signals were detected after incubation of the nitrocellulose membranes with horseradish peroxidase-conjugated streptavidin followed by a chemiluminescent reaction using the SuperSignal® substrate. FIG. 2B depicts an analysis of the binding of peptide 15 towards different GST-hPin1 variants. […] Residual PPIase activities of GST-hPin1 and its variants were determined according to Zhou et al., 2000 and/or Yaffe et al., 1997. The PPIase activity of the GST-hPin1 variant Ser16Glu was measured in the protease free PPIase assay.
GST-hPin1 variants, GST-hPin1 PPIase and GST-hPin1 WW domain were prepared as described previously (Ranganathan et al., 1997, Zhou et al., 2000). […] Specific bound peptide 15 was detected by a chemiluminescent reaction using the SuperSignal® substrate (Pierce).

For the next assay, the target named is T2, hPin1 (Homo sapiens, UniProt Q13526).
T2 construct: The protease free assay ensures reliable measurement of IC50 values for the full-length hPin1
The assay is described as follows: Protease free PPIase assay, hPin1. The note with it: 25 μM, phosphoester group on threonine lacking. It is filed as biochemical. On the procedure:
Protein concentrations were determined using the extinction coefficient ε280=21030 M^−1 cm^−1 for hPin1, ε280=6979 M^−1 cm^−1 for the hPin1 PPIase domain, ε280=21030 M^−1 cm^−1 for XlPin1, ε280=8250 M^−1 cm^−1 for hPar14 and ε280=8250 M^−1 cm^−1 for hCyp18. Extinction coefficients were calculated using the program ProtParam Tool at ExPASy (SIB, Switzerland). All measurements were done at 10° C. in 35 mM Hepes buffer (pH 7.8).
The determination of the kinetic constants of the cis/trans isomerization within the protease-free system was performed using fluorescence based measurements (Garcia-Echeverria et al., 1993, Zhang et al., 2002) on a Hitachi F-3010 fluorescence spectrophotometer with H-Abz-Ala-Glu-Pro-Phe-NH-Np (SEQ ID NO: 2) as substrate. The substrate stock solution was 12 mM in anhydrous trifluoroethanol/0.55 M LiCl. Measurements were initiated by addition of the substrate (final concentration 10 μM) to a pre-incubated (15 min) mixture of 8.8 nM hPin1 or 7.1 nM XlPin1 and respective inhibitory peptide of desired concentrations. The excitation wavelength was 320 nm (spectral bandwidth 3 nm) and emission was detected at 420 nm (spectral bandwidth 10 nm).
Data analysis was performed by single-exponential nonlinear regression using the SigmaPlot Scientific Graphing System Version 5.00 (Jandel Corp.). The apparent first order rate constant kobs was computed by nonlinear regression of the progress curve obtained for the respective measurement. The rate constant k0 was determined in the absence of Pin1. The first order rate constants kenz was calculated from the equation kenz=kobs−k0. IC50 and Ki values were determined by fitting the first order rate constants kenz against the concentration of the inhibitory peptide by nonlinear regression according to Schutkowski et al., 1995 or a model for tight binding inhibitors (Morrison, 1969).
The protease free assay ensures reliable measurement of IC50 values for the full-length hPin1.

A further assay has as its target T3, full length hPin1 (Homo sapiens, UniProt Q13526).
T3 construct: The protease free assay ensures reliable measurement of IC50 values for the full-length hPin1
The assay is described as follows: Isothermal titration calorimetry (ITC), full length hPin1. It is filed as binding. As to the method:
FIGS. 3A-B depicts a thermodynamic characterization of the binding of peptide 17 towards full length hPin1 by isothermal titration calorimetry (ITC). FIG. 3A depicts peaks that represent the heat evolved after injection of peptide 17 into the sample cell containing hPin1. After the 11th injection only the heat of dilution is observed. The experiment was performed at 10 C. FIG. 3B depicts integrals of the corresponding peaks of panel A are plotted against the molar ratio of peptide 17 and hPin1. The solid line represents a nonlinear least squares fit analysis of the binding heat assuming a single binding site model with the following parameters: ΔHbind=−4561±36 cal/mol, TΔSbind=5433±529 cal/mol, n=0.96 (binding stoichiometry) and KAss=5.18×10^7±7×10^6 M^−1 (association constant).
Calorimetric experiments were performed using a VP-ITC titration calorimeter (MicroCal, Inc, Northampton, Mass.) at 10° C. All solutions were degassed under vacuum prior to use. Solutions of hPin1 and hPin1 PPIase domain were dialyzed against 10 mM Hepes (pH 7.8). The protein concentration in the sample cell was adjusted to 6.5 μM using the same batch of buffer. Protein concentrations were determined as described above. The volume of the protein solution in the sample cell was 1.4 ml. The injection syringe was filled with 300 μl solution of peptide 17 (see table III) (250 μM in the same batch of buffer as used for dialyses). Each titration experiment consisted of a single 1 μl injection followed by 16 identical injections of 5 μl solution of peptide 17.
In principle, minimally four forms of a competing substrate in the presence of hPin1 have to be considered, the free cis and trans isomers together with two Michaelis complexes. This four-site exchange model of PPIase catalysis involves understanding predisposing factors of the stability of hPin1/substrate complexes, expected to be weaker, than the stability for those formed by phosphopeptides lacking substrate properties. The consequent increase in inhibitory potency could be realized by a transition state destabilizing substitution in peptide 15. Previous studies have shown that following C^α-stereocenter inversion of a substrate at the P1 position the parvulins fully retain substrate-like active site affinity for the derivatives while catalytic rate acceleration is abolished (Schiene et al., 1998). […] To optimize solute diffusion after mechanical injection of the Pin1 binding peptides into the viscous Xenopus laevis egg cytosol, the molecular weight of 1376.5 for peptide 16 was reduced to 823.8 for peptide 17. Following chain truncation peptide 17 maintained high affinity for Pin1 (Table III). To ensure domain selectivity, the binding of peptide 17 towards hPin1 was characterized using the isothermal titration calorimetry (ITC). […] The dissociation constant determined with ITC is in the same range as obtained in the protease-free PPIase assay (Table III).
For orientation: ITC needs no label: the signal is the heat of the interaction.

pKd: −log10 of the molar value. Square brackets hold non-standard residues; d marks the D form. Peptide text beside a SMILES is read from it. * marks the point of attachment. Biotin = O=C1N[C@H]2[C@H](CS[C@H]2CCCCC(=O)*)N1; pT = C[C@@H](OP(=O)(O)O)[C@H](N)C(=O)O; 2Nal = N[C@@H](Cc1ccc2ccccc2c1)C(=O)O; Bta = N[C@@H](Cc1csc2ccccc12)C(=O)O; Pip = O=C(O)[C@@H]1CCCCN1

T3 sequence (Q13526 whole entry): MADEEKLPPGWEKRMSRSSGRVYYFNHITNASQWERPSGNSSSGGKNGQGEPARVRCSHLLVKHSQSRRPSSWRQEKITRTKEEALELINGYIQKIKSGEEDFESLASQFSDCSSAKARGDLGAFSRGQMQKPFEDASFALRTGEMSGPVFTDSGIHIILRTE
T1 sequence (Q13526 whole entry, the tested form may be a part): as the sequence (Q13526 whole entry) above
T2 sequence (Q13526 whole entry): as above

As for “nonphosphorylated derivative of peptide 15: peptide 15 lacking the phosphoester group on threonine, used as control (Ac-K(Biotin)AA[Bta]T[Pip][2Nal]Q-NH2; SMILES CC(=O)N[C@@H](CCCCNC(=O)CCCC[C@@H]1SC[C@@H]2NC(=O)N[C@@H]21)C(=O)N[C@@H](C)C(=O)N[C@@H](C)C(=O)N[C@@H](Cc1csc2ccccc12)C(=O)N[C@H](C(=O)N1CCCC[C@H]1C(=O)N[C@@H](Cc1ccc2ccccc2c1)C(=O)N[C@@H](CCC(N)=O)C(N)=O)[C@@H](C)O) [reference compound]”, the “binding to GST-hPin1 and its PPIase and WW domains” value in assay [1] is “not able to form a complex”. The hPin1 inhibition result in the assay with hPin1 is given as “does not show any hPin1 inhibition”.

At full length hPin1, `CC(=O)N[C@@H](Cc1ccccc1)C(=O)N[C@H](C(=O)N1CCCC[C@H]1C(=O)N[C@@H](Cc1ccc2ccccc2c1)C(=O)N[C@@H](CCC(N)=O)C(N)=O)[C@@H](C)OP(=O)(O)O` [Ac-Phe-L-Thr(PO3H2)-Pip-Nal-Gln-NH2, reference compound] (Ac-F[pT][Pip][2Nal]Q-NH2) gave a pKd of 6.22.
